B1: Pistol ribozyme (parent)
chain: GGGUCGUUGUUCCAUAAUCGCGUGGAUAUGGCACGCAAGUUUCUACCGGGCACCGUAAAUGUCCGACUGGAGCCGUUCGGGCGGCUAUAAACAGACCUCAGGCCCGAAGCGUGGCGGCACCUGCCGCCGGUGGUAAAAAAGAUCGGAAGAGCACACGUCU

In the data set the parent is B1. As to the kind of experiment: aptazyme ON/OFF ratio, guanine; higher = stronger switching; co-transcriptional cleavage with and without guanine.
For GGGUCGGCCAGCUAUAAUCGCGUGGAUAUGGCACGCAAGUUUCUACCGGGCACCGUAAAUGUCCGACUGGAGCCGUUCGGGCGGCUAUAAACAGACCUCAGGCCCGAAGCGUGGCGGCACCUGCCGCCGGUGGUAAAAAAGAUCGGAAGAGCACACGUCU [U7G U8C G9C U10A U11G C13U], the “aptazyme ON/OFF ratio” value stood at 1.18. For GGGUCGACUUGCCAUAAUCGCGUGGAUAUGGCACGCAAGUUUCUACCGGGCACCGUAAAUGUCCGACUGGAGCCGUUCGGGCGGCUAUAAACAGACCUCAGGCCCGAAGCGUGGCGGCACCUGCCGCCGGUGGUAAAAAAGAUCGGAAGAGCACACGUCU [U7A U8C G9U U11G] the value was 1.29.

With GGGUCGUUGAGCAAUAAUCGCGUGGAUAUGGCACGCAAGUUUCUACCGGGCACCGUAAAUGUCCGACUGGAGCCGUUCGGGCGGCUAUAAACAGACCUCAGGCCCGAAGCGUGGCGGCACCUGCCGCCGGUGGUAAAAAAGAUCGGAAGAGCACACGUCU [U10A U11G C13A], the “aptazyme ON/OFF ratio” value stood at 1.33.

Turning to GGGUCGUGAAAAAAUAAUCGCGUGGAUAUGGCACGCAAGUUUCUACCGGGCACCGUAAAUGUCCGACUGGAGCCGUUCGGGCGGCUAUAAACAGACCUCAGGCCCGAAGCGUGGCGGCACCUGCCGCCGGUGGUAAAAAAGAUCGGAAGAGCACACGUCU [U8G G9A U10A U11A C12A C13A], the “aptazyme ON/OFF ratio” value was 1.21. GGGUCGCCUAGAUAUAAUCGCGUGGAUAUGGCACGCAAGUUUCUACCGGGCACCGUAAAUGUCCGACUGGAGCCGUUCGGGCGGCUAUAAACAGACCUCAGGCCCGAAGCGUGGCGGCACCUGCCGCCGGUGGUAAAAAAGAUCGGAAGAGCACACGUCU [U7C U8C G9U U10A U11G C12A C13U]: the “aptazyme ON/OFF ratio” value amounted to 1.12. GGGUCGAUCAAACAUAAUCGCGUGGAUAUGGCACGCAAGUUUCUACCGGGCACCGUAAAUGUCCGACUGGAGCCGUUCGGGCGGCUAUAAACAGACCUCAGGCCCGAAGCGUGGCGGCACCUGCCGCCGGUGGUAAAAAAGAUCGGAAGAGCACACGUCU [U7A G9C U10A U11A C12A]: the “aptazyme ON/OFF ratio” value turned out to be 1.06. For the variant GGGUCGUCUGGGAAUAAUCGCGUGGAUAUGGCACGCAAGUUUCUACCGGGCACCGUAAAUGUCCGACUGGAGCCGUUCGGGCGGCUAUAAACAGACCUCAGGCCCGAAGCGUGGCGGCACCUGCCGCCGGUGGUAAAAAAGAUCGGAAGAGCACACGUCU [U8C G9U U10G U11G C12G C13A], the “aptazyme ON/OFF ratio” value came out at 1.14.

For GGGUCGGCGGAUAAUAAUCGCGUGGAUAUGGCACGCAAGUUUCUACCGGGCACCGUAAAUGUCCGACUGGAGCCGUUCGGGCGGCUAUAAACAGACCUCAGGCCCGAAGCGUGGCGGCACCUGCCGCCGGUGGUAAAAAAGAUCGGAAGAGCACACGUCU [U7G U8C U10G U11A C12U C13A], the “aptazyme ON/OFF ratio” value is 1.13. GGGUCGGACGCCUAUAAUCGCGUGGAUAUGGCACGCAAGUUUCUACCGGGCACCGUAAAUGUCCGACUGGAGCCGUUCGGGCGGCUAUAAACAGACCUCAGGCCCGAAGCGUGGCGGCACCUGCCGCCGGUGGUAAAAAAGAUCGGAAGAGCACACGUCU [U7G U8A G9C U10G U11C C13U]: the “aptazyme ON/OFF ratio” value came out at 1.02. As for GGGUCGACGACCCAUAAUCGCGUGGAUAUGGCACGCAAGUUUCUACCGGGCACCGUAAAUGUCCGACUGGAGCCGUUCGGGCGGCUAUAAACAGACCUCAGGCCCGAAGCGUGGCGGCACCUGCCGCCGGUGGUAAAAAAGAUCGGAAGAGCACACGUCU [U7A U8C U10A U11C], the figure is 1.03.

Turning to GGGUCGAAGCUUAAUAAUCGCGUGGAUAUGGCACGCAAGUUUCUACCGGGCACCGUAAAUGUCCGACUGGAGCCGUUCGGGCGGCUAUAAACAGACCUCAGGCCCGAAGCGUGGCGGCACCUGCCGCCGGUGGUAAAAAAGAUCGGAAGAGCACACGUCU [U7A U8A U10C C12U C13A], the “aptazyme ON/OFF ratio” value came to 1.05. Take GGGUCGUCGCUAUAUAAUCGCGUGGAUAUGGCACGCAAGUUUCUACCGGGCACCGUAAAUGUCCGACUGGAGCCGUUCGGGCGGCUAUAAACAGACCUCAGGCCCGAAGCGUGGCGGCACCUGCCGCCGGUGGUAAAAAAGAUCGGAAGAGCACACGUCU [U8C U10C C12A C13U]: the “aptazyme ON/OFF ratio” value turned out to be 1.42. Regarding GGGUCGUACUUUGAUAAUCGCGUGGAUAUGGCACGCAAGUUUCUACCGGGCACCGUAAAUGUCCGACUGGAGCCGUUCGGGCGGCUAUAAACAGACCUCAGGCCCGAAGCGUGGCGGCACCUGCCGCCGGUGGUAAAAAAGAUCGGAAGAGCACACGUCU [U8A G9C C12U C13G], the “aptazyme ON/OFF ratio” value amounted to 1.15. Consider GGGUCGUUUCCGGAUAAUCGCGUGGAUAUGGCACGCAAGUUUCUACCGGGCACCGUAAAUGUCCGACUGGAGCCGUUCGGGCGGCUAUAAACAGACCUCAGGCCCGAAGCGUGGCGGCACCUGCCGCCGGUGGUAAAAAAGAUCGGAAGAGCACACGUCU [G9U U10C U11C C12G C13G], for which the “aptazyme ON/OFF ratio” value amounted to 1.11. As for GGGUCGAGAAUGUAUAAUCGCGUGGAUAUGGCACGCAAGUUUCUACCGGGCACCGUAAAUGUCCGACUGGAGCCGUUCGGGCGGCUAUAAACAGACCUCAGGCCCGAAGCGUGGCGGCACCUGCCGCCGGUGGUAAAAAAGAUCGGAAGAGCACACGUCU [U7A U8G G9A U10A C12G C13U], the figure is 1.34. As for GGGUCGAAUCAGUAUAAUCGCGUGGAUAUGGCACGCAAGUUUCUACCGGGCACCGUAAAUGUCCGACUGGAGCCGUUCGGGCGGCUAUAAACAGACCUCAGGCCCGAAGCGUGGCGGCACCUGCCGCCGGUGGUAAAAAAGAUCGGAAGAGCACACGUCU [U7A U8A G9U U10C U11A C12G C13U], the “aptazyme ON/OFF ratio” value is 1.16. With GGGUCGAAAUUUCAUAAUCGCGUGGAUAUGGCACGCAAGUUUCUACCGGGCACCGUAAAUGUCCGACUGGAGCCGUUCGGGCGGCUAUAAACAGACCUCAGGCCCGAAGCGUGGCGGCACCUGCCGCCGGUGGUAAAAAAGAUCGGAAGAGCACACGUCU [U7A U8A G9A C12U], the “aptazyme ON/OFF ratio” value was found to be 1.32. For the variant GGGUCGAGGAGGAAUAAUCGCGUGGAUAUGGCACGCAAGUUUCUACCGGGCACCGUAAAUGUCCGACUGGAGCCGUUCGGGCGGCUAUAAACAGACCUCAGGCCCGAAGCGUGGCGGCACCUGCCGCCGGUGGUAAAAAAGAUCGGAAGAGCACACGUCU [U7A U8G U10A U11G C12G C13A], the “aptazyme ON/OFF ratio” value was determined as 1.16.
